As a reminder, the Kd is the free concentration of one partner at which half of the binding sites on the other are occupied at equilibrium, for simple one-to-one binding. A high value points to weaker binding. The term koff denotes the first-order rate constant of dissociation. Lower therefore signals a long-lived complex. As a reminder, the kon is the rate constant with which the complex forms. A lower kon goes with slow association.

The values below come from patent publication US20180036405A1.

Test [1] has as its target human dimeric EGFR (EGFR.mFc) (human). Nature of the test: SPR 37C, mAb captured by anti-human Fc, EGFR.mFc analyte.
In test [2] the target is EGFR on A431 epidermoid carcinoma cells (human) (UniProt P00533). Nature of the test: cell-based or functional assay.
Test [3] addresses human monomeric EGFR (EGFR.mmh) (human) (UniProt P00533). Nature of the test: SPR 37C, mAb captured by anti-human Fc, EGFR.mmh analyte.

Consider “Control I: a chimeric anti-EGFR antibody with heavy and light chain variable sequences of "mAb 225" as set forth in U.S. Pat. No. 7,060,808”, for which, in test [1], the Kd was 0.0303 nM, the koff was found to be 0.000108 s⁻¹, the on-rate (kon) turned out to be 3.55e+06 M⁻¹ s⁻¹ and the t1/2 was determined as 1.78 h. In test [2], the ADCC EC50 worked out at 1.86e-12 Molar, the IC50 of A431 Proliferation came to 3.35e-10 Molar and the Maximum Cell Killing (%) was 24%. Further, in test [3], the dissociation constant (Kd) was found to be 4.68 nM, the koff is 0.00738 s⁻¹, the kon came out at 1.58e+06 M⁻¹ s⁻¹ and the t1/2 was 2 min.

“Control II: a commercially available fully human monoclonal anti-EGFR antibody designated as ABX-EGF”: in test [1], the Kd was 0.0423 nM and the t1/2 amounted to 3.3 h.
